For assay [1], the target named is C34-CXCR4 isoform B fusion protein (C34-X4b), expressed on CXCR4-/- B4 SupT1 cells by lentiviral transduction (Pan troglodytes (Chimpanzee)) (UniProt P61072). The experiment in a line: flow cytometry on C34-X4b B4 SupT1 transfectants, PE goat anti-mIgG detection. On the technique in general: Flow cytometry measures light scatter and fluorescence of single cells or particles in a stream.

In assay [2] the target is wild-type CXCR4 isoform B (X4b-WT), expressed on CXCR4-/- B4 SupT1 cells by lentiviral transduction (UniProt P61073). As to the kind of experiment: flow cytometry on X4b WT B4 SupT1 transfectants, PE goat anti-mIgG detection.
Chain of UniProt P61073 (P61073 whole entry, canonical isoform): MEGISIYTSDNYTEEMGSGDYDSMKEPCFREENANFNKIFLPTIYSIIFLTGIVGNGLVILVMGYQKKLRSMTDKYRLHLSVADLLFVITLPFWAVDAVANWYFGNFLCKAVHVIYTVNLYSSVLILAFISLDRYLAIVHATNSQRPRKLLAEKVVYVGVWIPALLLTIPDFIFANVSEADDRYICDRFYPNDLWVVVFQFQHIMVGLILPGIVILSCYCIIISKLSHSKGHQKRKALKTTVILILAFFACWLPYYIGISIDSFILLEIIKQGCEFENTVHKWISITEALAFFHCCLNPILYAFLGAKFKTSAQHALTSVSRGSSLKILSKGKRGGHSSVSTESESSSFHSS

Chain of UniProt P61072 (P61072 1-352, tags or fused parts left off): as the sequence (P61073 whole entry, canonical isoform) above

Turning to “anti-CXCR4 monoclonal antibody 12G5 (BD Biosciences)”, in assay [1], the MFI is 253 MFI and the positively stained cells (%) is 96.6%. In assay [2], this substance returned an MFI of 214 MFI and a positively stained cells (%) of 95.8%.

Take isotype control mIgG1 (antibody): the positively stained cells (%) in assay [1] and in assay [2] was 0% throughout.

For isotype control mIgG2a (antibody), the values for the positively stained cells (%) in assay [1] and in assay [2] were 0.39% and 0.98%, respectively.

These data come from patent publication US20120093787A1.
